Assay [1] concerns the target T1, C-reactive protein (human), P02741.
T1 chain: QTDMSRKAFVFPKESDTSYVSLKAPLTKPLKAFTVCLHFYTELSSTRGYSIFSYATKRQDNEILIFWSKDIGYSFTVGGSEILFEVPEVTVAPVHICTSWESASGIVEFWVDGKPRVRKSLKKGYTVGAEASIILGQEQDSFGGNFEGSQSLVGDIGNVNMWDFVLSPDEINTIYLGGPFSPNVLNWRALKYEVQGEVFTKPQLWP
Kind of assay: FACS. The conditions noted are these: modification not given.

For assay [2] the target is unchanged. The assay can be described thus: FACS. Conditions: modification not given.

Usually Kd stands for a measure of binding affinity in units of concentration. High values mean a looser complex, low ones a tighter complex. YPPRFQYYRFYYRGP [CRP-10] gave a Kd in assay [1] of 5 nM.

In the case of FPIYNQRGFITLASP [CRP-2], the Kd in assay [1] came to 3 nM. Still for that read-out and setting: the result for MIFNSRGFLSLMSSG [CRP-6] reads 8 nM. On to EWACNDRGFNCQLQR [CRP-1], for which the Kd in assay [2] stood at 1 nM; in assay [1], 1.2 nM.
